Measurements: patent US5141947A, “Fibrinolysis-enhancing agents” (Mitsubishi Kasei Corporation, priority 1984, dated 1992)

Tested on: thrombus in carotid artery of rabbit
Assay: in vivo thrombolysis by t-PA, rabbit carotid artery thrombus (Example 4)
Conditions: for Thrombus Protein: 2 h infusion, femoral vein, n=4, saline control 1.97 ± 0.38
Method: The carotid artery of a rabbit was exposed from the surrounding tissue under anesthesia by pentobarbital. The exposed artery was surrounded with absorbent cotton soaked with glacial acetic acid and allowed to stay for 3 hours to form thrombus by the damage done to the endorthelium. The thus formed thrombus was tested for dissolution. Immediately after removing out the cotton, physiological saline in which the substance to be tested had been dissolved was injected through the femoral vein. The infusion was continued over 2 hours. After the infusion, the arterial segment wherein the thrombus had been formed was cut out and the thrombus mass was removed out under a microscope. The thrombus was dissolved in alkali and the protein was quantitatively measured by phenol method.

B1: t-PA: single or double chain tissue plasminogen activator (t-PA) (protein, UniProt P00750 36-562, looked up)
Tissue-type plasminogen …: SYQVICRDEKTQMIYQQHQSWLRPVLRSNRVEYCWCNSGRAQCHSVPVKSCSEPRCFNGGTCQQALYFSDFVCQCPEGFAGKCCEIDTRATCYEDQGISYRGTWSTAESGAECTNWNSSALAQKPYSGRRPDAIRLGLGNHNYCRNPDRDSKPWCYVFKAGKYSSEFCSTPACSEGNSDCYFGNGSAYRGTHSLTESGASCLPWNSMILIGKVYTAQNPSAQALGLGKHNYCRNPDGDAKPWCHVLKNRRLTWEYCDVPSCSTCGLRQYSQPQFRIKGGLFADIASHPWQAAIFAKHRRSPGERFLCGGILISSCWILSAAHCFQERFPPHHLTVILGRTYRVVPGEEEQKFEVEKYIVHKEFDDDTYDNDIALLQLKSDSSRCAQESSVVRTVCLPPADLQLPDWTECELSGYGKHEALSPFYSERLKEAHVRLYPSSRCTSQHLLNRTVTDNMLCAGDTRSGGPQANLHDACQGDSGGPLVCLNDGRMTLVGIISWGLGCGQKDVPGVYTKVTNYLDWIRDNMRP
- thrombolytic effect (t-PA 0.48 mg/kg alone): no thrombolytic effect
- Thrombus Protein (t-PA 0.48 mg/kg alone): 2.45 ± 0.81 mg
- Thrombus Protein (t-PA 0.96 mg/kg alone): 0.40 ± 0.16 mg
